Assays:
[1] = test system: SHEL (synthetic human elastin; recombinant human tropoelastin splice form)
[2] = test system: serine protease site peptide (SPS-peptide), N-AAKAQLRAAAGLGA-C
[3] = test system: SHELδ26A (SHEL lacking the sequence of exon 26A)
[4] = test system: GST-SHEL (glutathione S-transferase fusion of SHEL)
GST-SHEL (glutathione S-transferase fusion of SHEL), sequence (chain, as listed by the source): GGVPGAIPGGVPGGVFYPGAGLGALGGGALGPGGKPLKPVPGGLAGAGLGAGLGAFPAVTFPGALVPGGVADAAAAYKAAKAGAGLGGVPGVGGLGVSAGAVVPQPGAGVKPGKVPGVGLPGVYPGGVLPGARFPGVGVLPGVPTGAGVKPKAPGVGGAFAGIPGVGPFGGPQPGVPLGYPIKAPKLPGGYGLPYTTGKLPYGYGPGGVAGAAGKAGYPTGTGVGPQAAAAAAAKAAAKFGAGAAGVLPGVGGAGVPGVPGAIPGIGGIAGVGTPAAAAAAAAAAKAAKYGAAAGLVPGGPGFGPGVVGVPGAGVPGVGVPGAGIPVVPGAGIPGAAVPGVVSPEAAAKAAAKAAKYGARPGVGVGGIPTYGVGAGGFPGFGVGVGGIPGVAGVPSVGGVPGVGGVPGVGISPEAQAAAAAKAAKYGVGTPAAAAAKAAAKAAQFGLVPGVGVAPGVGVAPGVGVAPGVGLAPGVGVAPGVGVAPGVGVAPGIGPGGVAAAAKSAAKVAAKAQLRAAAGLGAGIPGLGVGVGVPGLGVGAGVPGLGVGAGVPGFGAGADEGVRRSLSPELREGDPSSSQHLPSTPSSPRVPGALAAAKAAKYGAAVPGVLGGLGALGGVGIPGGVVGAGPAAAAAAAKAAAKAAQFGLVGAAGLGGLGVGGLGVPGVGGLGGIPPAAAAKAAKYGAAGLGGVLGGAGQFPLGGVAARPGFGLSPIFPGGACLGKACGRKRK

human plasma kallikrein (Sigma), sequence (chain, as listed by the source): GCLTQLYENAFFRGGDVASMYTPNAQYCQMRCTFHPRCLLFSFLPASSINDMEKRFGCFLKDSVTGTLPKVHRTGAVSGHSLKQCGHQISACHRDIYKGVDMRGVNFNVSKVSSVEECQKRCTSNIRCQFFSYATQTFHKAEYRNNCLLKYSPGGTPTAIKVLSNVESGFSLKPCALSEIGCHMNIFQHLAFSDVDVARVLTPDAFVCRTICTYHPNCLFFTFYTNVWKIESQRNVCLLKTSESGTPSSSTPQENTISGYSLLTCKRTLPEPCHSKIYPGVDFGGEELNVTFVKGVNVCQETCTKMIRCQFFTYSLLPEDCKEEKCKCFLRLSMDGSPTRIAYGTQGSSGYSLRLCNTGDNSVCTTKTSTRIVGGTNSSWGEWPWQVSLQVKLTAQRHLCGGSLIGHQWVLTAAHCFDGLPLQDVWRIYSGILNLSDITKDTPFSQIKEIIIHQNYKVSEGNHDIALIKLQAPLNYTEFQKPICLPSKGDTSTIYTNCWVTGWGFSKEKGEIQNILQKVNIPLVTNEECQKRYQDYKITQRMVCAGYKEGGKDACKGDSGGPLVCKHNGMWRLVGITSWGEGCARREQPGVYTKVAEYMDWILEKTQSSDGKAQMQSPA
SHEL (synthetic human elastin; recombinant human tropoelastin splice form), sequence (chain, as listed by the source): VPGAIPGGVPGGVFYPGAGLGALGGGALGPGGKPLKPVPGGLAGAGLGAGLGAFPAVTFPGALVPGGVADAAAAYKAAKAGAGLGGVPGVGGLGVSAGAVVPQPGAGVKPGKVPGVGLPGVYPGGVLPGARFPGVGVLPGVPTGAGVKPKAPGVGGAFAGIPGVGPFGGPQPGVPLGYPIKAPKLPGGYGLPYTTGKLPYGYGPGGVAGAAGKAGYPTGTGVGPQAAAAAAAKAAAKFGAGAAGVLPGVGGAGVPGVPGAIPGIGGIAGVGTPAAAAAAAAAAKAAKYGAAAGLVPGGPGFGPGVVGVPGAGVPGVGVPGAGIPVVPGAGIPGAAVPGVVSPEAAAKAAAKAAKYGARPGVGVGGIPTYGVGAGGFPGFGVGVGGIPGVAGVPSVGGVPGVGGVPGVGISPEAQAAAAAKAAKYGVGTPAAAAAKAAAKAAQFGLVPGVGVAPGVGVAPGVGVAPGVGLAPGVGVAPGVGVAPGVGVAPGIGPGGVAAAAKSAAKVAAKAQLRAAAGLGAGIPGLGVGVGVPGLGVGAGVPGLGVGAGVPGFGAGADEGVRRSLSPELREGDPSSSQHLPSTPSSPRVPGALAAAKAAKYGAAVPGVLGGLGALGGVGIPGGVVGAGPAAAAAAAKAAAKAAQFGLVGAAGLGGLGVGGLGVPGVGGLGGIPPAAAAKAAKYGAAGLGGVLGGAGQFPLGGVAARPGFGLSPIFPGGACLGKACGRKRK
SHELδ26A (SHEL lacking the sequence of exon 26A), sequence (chain, as listed by the source mutant): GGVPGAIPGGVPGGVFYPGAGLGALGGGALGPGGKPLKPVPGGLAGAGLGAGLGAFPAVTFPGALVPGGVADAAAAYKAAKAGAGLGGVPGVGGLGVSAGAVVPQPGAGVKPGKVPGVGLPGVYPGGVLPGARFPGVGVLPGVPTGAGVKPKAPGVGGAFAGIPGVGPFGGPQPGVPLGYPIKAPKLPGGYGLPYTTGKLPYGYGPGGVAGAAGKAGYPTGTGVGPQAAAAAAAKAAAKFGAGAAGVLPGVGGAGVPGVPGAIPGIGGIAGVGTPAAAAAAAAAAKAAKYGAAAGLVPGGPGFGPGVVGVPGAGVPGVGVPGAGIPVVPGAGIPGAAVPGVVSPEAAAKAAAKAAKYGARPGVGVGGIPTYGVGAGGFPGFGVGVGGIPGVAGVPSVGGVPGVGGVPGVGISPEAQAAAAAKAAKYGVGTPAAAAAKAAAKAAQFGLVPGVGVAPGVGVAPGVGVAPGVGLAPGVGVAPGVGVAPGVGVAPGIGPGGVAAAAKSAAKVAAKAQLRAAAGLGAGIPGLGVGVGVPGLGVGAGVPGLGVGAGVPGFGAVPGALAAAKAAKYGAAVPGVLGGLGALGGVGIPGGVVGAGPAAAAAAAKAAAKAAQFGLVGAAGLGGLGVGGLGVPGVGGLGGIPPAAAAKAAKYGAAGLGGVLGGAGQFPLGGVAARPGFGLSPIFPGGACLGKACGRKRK

Substance | degradation of SHEL by human plasma kallikrein, SDS-PAGE [1] | amount of full-length SHEL after kallikrein digestion with a 100:1 molar excess of SPS-peptide, SDS-PAGE and densitometry (also seen with SHELδ26A, not shown) [2] | degradation of SHELδ26A by human plasma kallikrein, SDS-PAGE [3] | degradation of SHEL by thrombin, SDS-PAGE [1] | amount of full-length SHEL after thrombin digestion with SPS-peptide, SDS-PAGE and densitometry [2] | cleavage of GST-SHEL by thrombin, SDS-PAGE [4] | degradation of SHELδ26A by thrombin, SDS-PAGE [3]
human plasma kallikrein (Sigma) | Three major fragments were identified by SDS-PAGE (FIG. 8) estimated to be 45, 22 and 18 kDa | more full-length SHEL was evident compared with controls using trypsin, plasmin, kallikrein and serum | The pattern of degradation of SHELδ26A was somewhat different, with the 22 and 18 kDa fragments missing and replaced by a 15 kDa fragment | – | – | – | –
human thrombin (Sigma) | – | – | – | four major fragments were identified by SDS-PAGE estimated at 45, 34, 22 and 13 kDa | SPS-peptide also resulted in more full-length SHEL using thrombin and HLE but to a lesser extent | Thrombin is able to cleave GST-SHEL extensively and in a reproducible manner | The patterns of degradation seen with SHELδ26A was slightly different with the 22 kDa fragment reduced in size to about 15 kDa
